# From paper PMC5147862 (PLoS ONE, 2016)
# B1: RRAS1, mGppNHp-bound (natural protein, human, UniProt P10301 1-218, looked up)
# chain: MSSGAASGTGRGRPRGGGPGPGDPPPSETHKLVVVGGGGVGKSALTIQFIQSYFVSDYDPTIEDSYTKICSVDGIPARLDILDTAGQEEFGAMREQYMRAGHGFLLVFAINDRQSFNEVGKLFTQILRVKDRDDFPVVLVGNKADLESQRQVPRSEASAFGASHHVAYFEASAKLRLNVDEAFEQLVRAVRKYQEQELPPSPPSAPRKKGGGCPCVLL
# notes: human RRAS1 (R-Ras); Loaded with mGppNHp; That the RAS proteins are the ones made with pGEX is surmised
# B2: RAS association (RA) domain of RASSF5, MBP fusion (domain or fragment, human, UniProt Q8WWW0 200-358, looked up)
# chain: EETQRPPTLQEIKQKIDSYNTREKNCLGMKLSEDGTYTGFIKVHLKLRRPVTVPAGIRPQSIYDAIKEVNLAATTDKRTSFYLPLDAIKQLHISSTTTVSEVIQGLLKKFMVVDNPQKFALFKRIHKDGQVLFQKLSIADRPLYLRLLAGPDTEVLSFV
# notes: human RASSF5, RA domain, aa 200-358; also called RASSF5-RA
# B3: RRAS2 (or TC21), mGppNHp-bound (natural protein, human, UniProt P62070 1-204, looked up)
# chain: MAAAGWRDGSGQEKYRLVVVGGGGVGKSALTIQFIQSYFVTDYDPTIEDSYTKQCVIDDRAARLDILDTAGQEEFGAMREQYMRTGEGFLLVFSVTDRGSFEEIYKFQRQILRVKDRDEFPMILIGNKADLDHQRQVTQEEGQQLARQLKVTYMEASAKIRMNVDQAFHELVRVIRKFQEQECPPSPEPTRKEKDKKGCHCVIF
# notes: human RRAS2 (TC21); Loaded with mGppNHp; That the RAS proteins are the ones made with pGEX is surmised; also called RRAS2-mGppNHp
# B4: RAS association (RA) domain of PLCε, MBP fusion (domain or fragment, human, UniProt Q9P212 2130-2240, looked up)
# chain: LSSEEESFFVQVHDVSPEQPRTVIKAPRVSTAQDVIQQTLCKAKYSYSILSNPNPSDYVLLEEVVKDTTNKKTTTPKSSQRVLLDQECVFQAQSKWKGAGKFILKLKEQVQ
# notes: human PLCε, RA domain (RA2), aa 2130-2240; also called PLCε-RA2
# How the values were obtained:
# Experiment in all cases: fluorescence polarisation; MBP-tagged effector domain (0.05-100 μM) titrated to 1 μM RAS-mGppNHp; 50 mM Tris/HCl pH 7.5, 100 mM NaCl, 5 mM MgCl2, 3 mM dithiothreitol, 25°C; quadratic ligand binding equation
# Conditions in all cases: both partners purified
# [1] = target: T1, RAS binding (RB) domain of PI3Kα, MBP fusion (human, UniProt P42336 169-301)
# T1 construct: human PI3Kα, RB domain, aa 169-301; also called PI3Kα-RB
# [2] = target: T2, HRAS, mGppNHp-bound (human, UniProt P01112 1-189)
# T2 construct: human HRAS; Loaded with the fluorescent non-hydrolysable GTP analog mant-GppNHp (mGppNHp); That the RAS proteins are the ones made with pGEX is surmised
# [3] = target: B1
# [4] = target: T3, NRAS, mGppNHp-bound (human, UniProt P01111 1-189)
# T3 construct: human NRAS; Loaded with mGppNHp; That the RAS proteins are the ones made with pGEX is surmised
# [5] = target: B3
# T1 sequence (P42336 169-301): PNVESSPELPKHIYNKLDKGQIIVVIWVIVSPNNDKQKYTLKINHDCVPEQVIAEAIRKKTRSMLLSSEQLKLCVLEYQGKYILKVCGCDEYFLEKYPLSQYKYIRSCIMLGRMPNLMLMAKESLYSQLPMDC
# T3 sequence (P01111 whole entry): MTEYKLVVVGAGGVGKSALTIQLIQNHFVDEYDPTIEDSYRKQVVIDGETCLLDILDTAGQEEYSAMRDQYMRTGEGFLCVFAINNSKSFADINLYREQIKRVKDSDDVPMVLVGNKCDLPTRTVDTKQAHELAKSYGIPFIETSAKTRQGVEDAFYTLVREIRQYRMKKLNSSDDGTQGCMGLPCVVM
Binder,Kd [1],Kd [2],Kd [3],Kd [4],Kd [5]
B1,11 µM,–,–,–,–
B2,–,0.238 µM,11.5 µM,0.442 µM,10 µM
B3,18.1 µM,–,–,–,–
B4,–,–,114 µM,–,145 µM
